Experiment [1] has as its system mice. The following applies: Ooi et al. 2012; cited from earlier work.
For experiment [2], the system named is MPO-ANCA IgG (polyclonal). The experiment in a line: Effect of CP on binding of polyclonal MPO-ANCA Ig to native MPO (ELISA). The following applies: MPO-ANCA IgG from four patients. Set-up: species or system human. The text has this: (§1) To isolate the putative serum factor, immobilized MPO aa447-459 peptide was used as bait to fish-out host proteins with binding capacity. […] However, the CP bound to aa447-459 was primarily a 50 kD protein on sodium dodecyl sulfate polyacrylamide gel electrophoresis (SDS-PAGE), while full length CP is 151 kD (FIG. 6D). An anti-ceruloplasmin western blot confirmed the fragment to be a portion of CP (FIG. 6E). To test the role of proteolytic cleavage in generating the blocking factor, a plasmin-generated fragment of CP (Kingston et al., Proc. Natl. Acad. Sci. USA 74:5377 (1977)) was tested for epitope masking capability (FIG. 6F).

In experiment [3] the test system is anti-MPO^447-459 autoantibody. The experiment in a line: Epitope masking ELISA with ceruloplasmin and its fragments. The experiment is classed as binding, human. The following applies: ELISA.
Source text: (§2) Serum proteins that bound immobilized MPO peptide aa447-459 were eluted and sequenced for identification. […] Sequenced on a 4800 MALDI TOF-TOF, the protein was identified as ceruloplasmin (CP), and confirmed by western blot analysis probed with a rabbit anti-human anti-CP polyclonal antibody (Abeam). Native CP was purchased (Enzo Life Science) and proteolytically digested in vitro by plasmin (Haemtech).
as §1
Background: In an ELISA, binding on a coated surface is turned into a signal by an enzyme label.

In experiment [4] the target is T1, MPO peptide aa447-459 (Homo sapiens, UniProt P05164).
T1 construct: made in house; host or cells: chemical synthesis (a peptide core is named only for the ELISA peptides)
The experiment can be described thus: Serum proteins binding to immobilized MPO peptide aa447-459. The note with it: identified by mass spectrometry.
Source text: as §2, §1

Turning to “PRWNGEKLYQEARKIVGAMV (listed as Homo sapiens) [murine MPO peptide aa409-428]”, the induction of glomerulonephritis entry in experiment [1] was “induces glomerulonephritis in mice”.

B1: full length CP: full length ceruloplasmin, 151 kD, purchased (Enzo Life Science) (protein)
chain: KEKHYYIGIIETTWDYASDHGEKKLISVDTEHSNIYLQNGPDRIGRLYKKALYLQYTDETFRTTIEKPVWLGFLGPIIKAETGDKVYVHLKNLASRPYTFHSHGITYYKEHEGAIYPDNTTDFQRADDKVYPGEQYTYMLLATEEQSPGEGDGNCVTRIYHSHIDAPKDIASGLIGPLIICKKDSLDKEKEKHIDREFVVMFSVVDENFSWYLEDNIKTYCSEPEKVDKDNEDFQESNRMYSVNGYTFGSLPGLSMCAEDRVKWYLFGMGNEVDVHAAFFHGQALTNKNYRIDTINLFPATLFDAYMVAQNPGEWMLSCQNLNHLKAGLQAFFQVQECNKSSSKDNIRGKHVRHYYIAAEEIIWNYAPSGIDIFTKENLTAPGSDSAVFFEQGTTRIGGSYKKLVYREYTDASFTNRKERGPEEEHLGILGPVIWAEVGDTIRVTFHNKGAYPLSIEPIGVRFNKNNEGTYYSPNYNPQSRSVPPSASHVAPTETFTYEWTVPKEVGPTNADPVCLAKMYYSAVEPTKDIFTGLIGPMKICKKGSLHANGRQKDVDKEFYLFPTVFDENESLLLEDNIRMFTTAPDQVDKEDEDFQESNKMHSMNGFMYGNQPGLTMCKGDSVVWYLFSAGNEADVHGIYFSGNTYLWRGERRDTANLFPQTSLTLHMWPDTEGTFNVECLTTDHYTGGMKQKYTVNQCRRQSEDSTFYLGERTYYIAAVEVEWDYSPQREWEKELHHLQEQNVSNAFLDKGEFYIGSKYKKVVYRQYTDSTFRVPVERKAEEEHLGILGPQLHADVGDKVKIIFKNMATRPYSIHAHGVQTESSTVTPTLPGETLTYVWKIPERSGAGTEDSACIPWAYYSTVDQVKDLYSGLIGPLIVCRRPYLKVFNPRRKLEFALLFLVFDENESWYLDDNIKTYSDHPEKVNKDDEEFIESNKMHAINGRMFGNLQGLTMHVGDEVNWYLMGMGNEIDLHTVHFHGHSFQYKHRGVYSSDVFDIFPGTYQTLEMFPRTPGIWLLHCHVTDHIHAGMETTYTVLQNEDTKSG
On to B1, for which, in experiment [2], the “effect on binding of polyclonal MPO-ANCA Ig to native MPO” value is on record as “unaffected”. The epitope masking capability entry is “did not” in experiment [3] and “did not mask the epitope” in experiment [3] (listed as full-length CP). In addition, the “binding to immobilized MPO aa447-459 peptide” value in experiment [4] is on record as “identified by mass spectrometry as a binding partner”.

Source of the values: US20150017665A1, “Peptides and Methods for Detecting MPO-ANCA” (The University of North Carolina at Chapel Hill, priority 2012, published 2015).
